Paper PMC8034617 (Nucleic Acids Research, 2021)
Values belong to the binder of their own block, whether it stands above or below them. Ends that are not written are not given here.

Key:
His-RPS19 wt [1] = target: T1, His-RPS19 wt (human (cDNA from K562), UniProt P39019 1-145); experiment: thermal shift assay
His-RPS19 wt [2] = target: T1, His-RPS19 wt; experiment: pull-down

binding result (His-RPS19 wt [1]): binds
B1: HNRNPK-derived peptide P1m (asymmetrically dimethylated) (peptide)
peptide: FPMRGRGGFDRMPPGRGGR
modifications: also: asymmetrically dimethylated, places not given here

binding result (His-RPS19 wt [2]): binds
B2: biotinylated HNRNPK peptide P1 (peptide)
peptide: FPMRGRGGFDRMPPGRGGR
modifications: also: biotin, position not given here

binding result (His-RPS19 wt [2]): binds
B3: biotinylated HNRNPK peptide P1m (peptide)
peptide: FPMRGRGGFDRMPPGRGGR
modifications: also: biotinylated, position not given here
